Measurements: PMC4672631
Like-named read-outs stand apart in the source and are kept apart here.

Columns and labels:
[1] = biological target: cytochrome f (PetA) with a C-terminal six-histidine tag, F. diplosiphon SF33 (Fremyella diplosiphon SF33); assay: co-purification
[2] = biological target: cytochrome f (PetA) with a C-terminal six-histidine tag, F. diplosiphon SF33 (Fremyella diplosiphon SF33); assay: co-purification; remark: listed apart in the source
[3] = biological target: cytochrome b6f complex of spinach (monomeric unit) (spinach) (UniProt P16013); assay: native gel or EMSA

Substance	stoichiometry N (relative to cyt f) [1]	stoichiometry N (relative to cyt f) [2]	stoichiometry N [3]
cytochrome b6 (PetB), F. diplosiphon SF33 (natural protein)	1.09	0.69	
cytochrome b6f complex of spinach (monomeric unit) (from UniProt P16013 36-320; P00165 1-215; P08980 52-230; P00166 1-160)			2
subunit IV (PetD), F. diplosiphon SF33 (natural protein)	0.45	0.29	
iron-sulfur protein (ISP), full length, F. diplosiphon SF33 (natural protein)	0.17	0.21	
